The target in data set [1] is T1, SSB (Saccharolobus solfataricus, UniProt Q97W73 1-148).
T1 sequence: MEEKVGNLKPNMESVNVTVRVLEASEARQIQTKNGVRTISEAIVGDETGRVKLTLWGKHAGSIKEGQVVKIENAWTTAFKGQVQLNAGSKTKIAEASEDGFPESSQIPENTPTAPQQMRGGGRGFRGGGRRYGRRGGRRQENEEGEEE
In words: EMSA; with NurA/HerA: SSB binding strongly stimulated; EMSA: 5 pmol fluorescent DNA in 10 ul, 20 mM HEPES/NaOH pH 7.5, 35 mM beta-mercaptoethanol, 500 mM NaCl, 50 mM MgCl2 (so in the source), 10 min room temperature, 5% PAGE in 0.5x TBE. The settings on record: protein: recombinant.

The target of the next data set is T2, NurA (Saccharolobus solfataricus, UniProt Q97WH1 1-339).
T2 sequence: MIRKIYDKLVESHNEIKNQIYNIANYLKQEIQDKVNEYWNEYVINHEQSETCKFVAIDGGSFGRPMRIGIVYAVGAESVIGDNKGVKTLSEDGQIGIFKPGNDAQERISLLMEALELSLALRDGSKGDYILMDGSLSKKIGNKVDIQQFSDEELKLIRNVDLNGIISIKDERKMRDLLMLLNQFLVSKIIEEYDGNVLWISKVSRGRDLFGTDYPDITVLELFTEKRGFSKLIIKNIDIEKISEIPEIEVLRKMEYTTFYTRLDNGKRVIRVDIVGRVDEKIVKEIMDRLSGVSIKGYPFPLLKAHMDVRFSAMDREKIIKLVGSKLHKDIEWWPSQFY
Nature of the data set: EMSA; with SSB: NurA binding not significantly influenced; EMSA: 5 pmol fluorescent DNA in 10 ul, 20 mM HEPES/NaOH pH 7.5, 35 mM beta-mercaptoethanol, 500 mM NaCl, 50 mM MgCl2 (so in the source), 10 min room temperature, 5% PAGE in 0.5x TBE. The note with it: protein: recombinant; chain copies: 2; single strand.

The target of data set [2] is T1, SSB. In words: EMSA; 2.5 pmol NurA/HerA, 1.5 pmol SSB, increasing ATP: no effect of ATP on stimulation; EMSA: 5 pmol fluorescent DNA in 10 ul, 20 mM HEPES/NaOH pH 7.5, 35 mM beta-mercaptoethanol, 500 mM NaCl, 50 mM MgCl2 (so in the source), 10 min room temperature, 5% PAGE in 0.5x TBE. The note with it: protein: recombinant; chain copies: 2; single strand.
Data set [3] has as its target T3, HerA (Saccharolobus solfataricus, UniProt Q97WG8 1-500).
T3 sequence: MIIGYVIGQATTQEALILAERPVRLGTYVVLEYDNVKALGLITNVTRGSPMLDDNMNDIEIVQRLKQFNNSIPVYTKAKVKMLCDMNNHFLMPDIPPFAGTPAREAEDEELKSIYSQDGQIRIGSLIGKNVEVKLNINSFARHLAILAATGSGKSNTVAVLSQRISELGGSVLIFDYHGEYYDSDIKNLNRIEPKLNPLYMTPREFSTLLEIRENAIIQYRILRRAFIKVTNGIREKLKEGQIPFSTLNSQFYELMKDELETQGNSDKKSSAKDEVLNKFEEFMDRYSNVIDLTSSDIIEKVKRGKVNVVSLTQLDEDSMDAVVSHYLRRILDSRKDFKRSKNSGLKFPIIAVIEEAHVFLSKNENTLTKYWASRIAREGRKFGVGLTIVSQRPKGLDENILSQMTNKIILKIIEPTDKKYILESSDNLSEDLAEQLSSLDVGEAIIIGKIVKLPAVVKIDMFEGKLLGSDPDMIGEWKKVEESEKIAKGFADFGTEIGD
In words: EMSA; HerA alone, increasing amounts; EMSA: 5 pmol fluorescent DNA in 10 ul, 20 mM HEPES/NaOH pH 7.5, 35 mM beta-mercaptoethanol, 500 mM NaCl, 50 mM MgCl2 (so in the source), 10 min room temperature, 5% PAGE in 0.5x TBE. The settings on record: protein: recombinant; chain copies: 6; single strand.

Data set [4] has as its target T3, HerA. In words: EMSA; in NurA/HerA with SSB: HerA binding not reduced on fork; EMSA: 5 pmol fluorescent DNA in 10 ul, 20 mM HEPES/NaOH pH 7.5, 35 mM beta-mercaptoethanol, 500 mM NaCl, 50 mM MgCl2 (so in the source), 10 min room temperature, 5% PAGE in 0.5x TBE. The settings on record: protein: recombinant; chain copies: 6; fork 1:2; 50 bp duplex, unpaired 5' T20 of strand 1 and 3' 20 nt of strand 2.

The values below come from PMC8910471, “The Finely Coordinated Action of SSB and NurA/HerA Complex Strictly Regulates the DNA End Resection Process in Saccharolobus solfataricus”.

For the molecule GCCGTGATCACCAATGCAGATTGACGAACCTTTGCCCACGT (ssDNA) [40 merCy3], in the data set with SSB [1] (chain copies: 2, single strand), the binding result is listed as “binds”.

Regarding GTTTTCCCAGTCACGAC (ssDNA) [17 merTAMRA], the binding result with NurA, with SSB [2] and with HerA [3] was “binds” throughout.

B1: 70 leadCy5 (70 mer) (ssDNA)
DNA: CGTGACTTGATGTTAACCCTAACCCTAAGAATTCGGCTTAAGTGAGTGTGAGGATATCATGTACGATAGC
On to B1, for which, in the data set with SSB [1] (chain copies: 2, single strand), the binding result is reported as “binds”.

B2: Forked substrate (70 lagFork/70 leadCy5) (dsDNA)
DNA 1: TTTTTTTTTTTTTTTTTTTTCACACTCACTTAAGCCGAATTCTTAGGGTTAGGGTTAACATCAAGTCACG
DNA 2: CGTGACTTGATGTTAACCCTAACCCTAAGAATTCGGCTTAAGTGAGTGTGAGGATATCATGTACGATAGC
For B2, the binding result with HerA [4] is given as “binds”; in the data set with SSB [1] (fork 1:2, 50 bp duplex, unpaired 5' T20 of strand 1 and 3' 20 nt of strand 2), “binds”.

For GCTATCGTACATGATATCCTC (ssDNA) [21 merTAMRA], the binding result in the data set with SSB [1] (chain copies: 2, single strand) is “binds”.
